Source: IntAct's records for PubMed 32494073

B1: Calcium uptake protein 1, mitochondrial (Homo sapiens), Q9BPX6 (parent)
chain: MFRLNSLSALAELAVGSRWYHGGSQPIQIRRRLMMVAFLGASAVTASTGLLWKRAHAESPPCVDNLKSDIGDKGKNKDEGDVCNHEKKTADLAPHPEEKKKKRSGFRDRKVMEYENRIRAYSTPDKIFRYFATLKVISEPGEAEVFMTPEDFVRSITPNEKQPEHLGLDQYIIKRFDGKKISQEREKFADEGSIFYTLGECGLISFSDYIFLTTVLSTPQRNFEIAFKMFDLNGDGEVDMEEFEQVQSIIRSQTSMGMRHRDRPTTGNTLKSGLCSALTTYFFGADLKGKLTIKNFLEFQRKLQHDVLKLEFERHDPVDGRITERQFGGMLLAYSGVQSKKLTAMQRQLKKHFKEGKGLTFQEVENFFTFLKNINDVDTALSFYHMAGASLDKVTMQQVARTVAKVELSDHVCDVVFALFDCDGNGELSNKEFVSIMKQRLMRGLEKPKDMGFTRLMQAMWKCAQETAWDFALPKQ
partner: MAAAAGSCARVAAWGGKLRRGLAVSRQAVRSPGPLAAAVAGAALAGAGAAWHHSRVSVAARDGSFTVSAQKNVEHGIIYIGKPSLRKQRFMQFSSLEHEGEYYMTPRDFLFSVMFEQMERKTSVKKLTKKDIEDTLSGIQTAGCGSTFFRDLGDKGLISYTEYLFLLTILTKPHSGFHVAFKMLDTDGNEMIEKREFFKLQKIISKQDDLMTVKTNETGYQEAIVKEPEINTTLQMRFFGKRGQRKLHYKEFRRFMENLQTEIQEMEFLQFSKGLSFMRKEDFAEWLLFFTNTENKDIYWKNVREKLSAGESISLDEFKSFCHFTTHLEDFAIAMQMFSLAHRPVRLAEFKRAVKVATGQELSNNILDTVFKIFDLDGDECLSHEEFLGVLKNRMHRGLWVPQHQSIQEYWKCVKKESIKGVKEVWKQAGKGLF
B2: Calcium uptake protein 2, mitochondrial (Homo sapiens), Q8IYU8 (parent)
chain: B1 partner

Variants of: B1
Details: with micu2_human MICU2, Q8IYU8

effect of a mutation on the interaction	Variant
with no effect	MFRLNSLSALAELAVGSRWYHGGSQPIQIRRRLMMVAFLGASAVTASTGLLWKRAHAESPPCVDNLKSDIGDKGKNKDEGDVCNHEKKTADLAPHPEEKKKKRSGFRDRKVMEYENRIRAYSTPDKIFRYFATLKVISEPGEAEVFMTPEDFVRSITPNEKQPEHLGLDQYIIKRFDGKKISQEREKFADEGSIFYTLGECGLISFSDYIFLTTVLSTPQRNFEIAFKMFDLNGDGEVDMEEFEQVQSIIRSQTSMGMRHRDRPTTGNTLKSGLCSALTTYFFGADLKGKLTIKNFLEFQRKLQHDVLKLEFERHDPVDGRITERQFGGMLLAYSGVQSKKLTAMQRQLKKHFKEGKGLTFQEVENFFTFLKNINDVDTALSFYHMAGASLDKVTMQQVARTVAKVELSDHVCDVVFALFDCDGNGELSNKEFVSIMKQRLMRGLEKPKDMGFTRLMQAMWKSAQETAWDFALPKQ [C463S]

Variants of: B2
Details: with micu1_human MICU1, Q9BPX6

effect of a mutation on the interaction	Variant
disrupting interaction strength	MAAAAGSCARVAAWGGKLRRGLAVSRQAVRSPGPLAAAVAGAALAGAGAAWHHSRVSVAARDGSFTVSAQKNVEHGIIYIGKPSLRKQRFMQFSSLEHEGEYYMTPRDFLFSVMFEQMERKTSVKKLTKKDIEDTLSGIQTAGCGSTFFRDLGDKGLISYTEYLFLLTILTKPHSGFHVAFKMLDTDGNEMIEKREFFKLQKIISKQDDLMTVKTNETGYQEAIVKEPEINTTLQMRFFGKRGQRKLHYKEFRRFMENLQTEIQEMEFLQFSKGLSFMRKEDFAEWLLFFTNTENKDIYWKNVREKLSAGESISLDEFKSFCHFTTHLEDFAIAMQMFSLAHRPVRLAEFKEAVKVATGQELSNNILDTVFKIFDLDGDECLSHEEFLGVLKNRMHRGLWVPQHQSIQEYWKCVKKESIKGVKEVWKQAGKGLF [R352E]
